Measurements as given in US20120270234A1, “DDR2 PROTEIN WITH ACTIVATED KINASE ACTIVITY AND PREPARATION METHOD THEREOF” (KOREA INSTITUTE OF SCIENCE AND TECHNOLOGY, priority 2003, published 2012).
“Also recorded” adds a separate entry of the source.

Legend:
c-Fyn tyrosine kinase = biological target: T1, c-Fyn tyrosine kinase (Homo sapiens, UniProt P06241); experiment: tyrosine phosphorylation on co-expression with c-Fyn in insect cells, western blotting with phosphorylated tyrosine specific antibody; assay type: cell-based; conditions: FIG. 2
T1 construct: Full length human c-Fyn gene was per amplified from the vector containing full length human c-Fyn purchased from Invitrogen, USA; host or cells: sf9 insect cells co-infected with two recombinant baculoviruses
From the text: In order to check the expression of c-Src protein in the case of co-expressing the GST-DDR2 CKD and the c-Src (lane 2), a portion of lysate of the host cells is undergone a SDS-PAGE and then a western blotting using a c-Src protein specific antibody. Likewise in order to check the expression of c-Fyn protein in the case of co-expressing the GST-DDR2 CKD and the c-Fyn (lane 3), a portion of lysate of the host cells is undergone a SDS-PAGE and then a western blotting using a c-Fyn protein specific antibody.
The presence of equal amount of protein at each lane was estimated by coomassie brilliant blue (CBB) staining. The co-expression of c-Src or c-Fyn protein was confirmed by western blotting on aliquot of total cell lysate using human c-Src or c-Fyn specific antibody.
(§1) Phospho-tyrosine specific antibody was purchased from Cell Signaling Inc, USA. Specific antibodies to human c-Src, human c-Fyn, and she were obtained from SantaCruz, USA. Samples were boiled for 2 min in 1× lameli sample buffer, and loaded in 10% SDS-PAGE. Proteins were transferred to Immobilon-P membrane (Millipore) and blacked by 10% skim milk in TBS for an hour. The membrane was immunoblotted with antibodies for 2 hours and subsequently washed with 1×TBS five times. Then it was incubated with HRP conjugated secondary antibodies for an hour and protein bands were detected using chemiluminescence kit (Amersham).

c-Src tyrosine kinase = biological target: T2, c-Src tyrosine kinase (Mus musculus, UniProt P05480, P80A); experiment: tyrosine phosphorylation on co-expression with c-Src in insect cells, western blotting with phosphorylated tyrosine specific antibody; assay type: cell-based, Spodoptera frugiperda; conditions: glutathione bead purified, FIG. 2, FIG. 4
T2 construct: Full length human c-Src gene was per amplified from the vector of pUSE human O-Src wild (Upstate Biotechnology); host or cells: sf9 insect cells co-infected with two recombinant baculoviruses
From the text: The results shown in FIG. 4 were obtained by co-expressing a fused protein GST-DDR2 CKD, a fused protein (GST-DDR1b CKD) of the GST and the human DDR1b cytosolic tyrosine kinase domain, a fused protein (GST-Akt1) of the GST and the full-length mouse Akt1 kinase and a fused protein (GST-CDK4) of the GST and the full-length human CDK4 kinase with the c-Src protein without GST tagging in insect cells, respectively; purifying the respective expressed product using glutathione beads; performing SDS-PAGE; and performing the western blotting test using a phosphorylated tyrosine specific antibody and coomassie staining.
The results shown in FIG. 4 have been obtained by co-expressing the full-length c-Src protein together with the fused proteins, GST-DDR2 CKD, GST-DDR1b CKD, GST-Akt1 and GST-CDK4, respectively; in sf9 cells, then performing a western blotting test on each purified GST tagged protein using a phosphorylated tyrosine specific antibody. The presence of a similar amount of each purified GST tagged protein was shown by CBB staining.
GST tagged kinase defective DDR2 cytosolic domain (GST-kd-DDR2-CKD) with intact three tyrosines in the activation loop or with various phenylalanine mutations described in the text were co-expressed with Src in sf9 cells. GST tagged proteins were purified and the same amount of proteins estimated by CBB staining was used for western blotting using P-tyro antibody.
as §1

sf9 cells = experiment: tyrosine phosphorylation by H2O2 processing of expressing insect cells, western blotting with phosphorylated tyrosine specific antibody; assay type: cell-based, Spodoptera frugoperda; conditions: 200 μM H2O2 for half of an hour; FIG. 2, FIG. 5
Method: The results shown in FIG. 5 were obtained by solely expressing the fused proteins, GST-DDR2 CKD, the GST-DDR1b CKD, the GST-CDK4 and the GST-CDK1, respectively, in insect cells; processing with 200 μM of H2O2 for half of an hour; purifying the respective expressed product using glutathione beads; performing the SDS-PAGE; and performing the western blotting test using an phosphorylated tyrosine specific antibody and coomassie staining.
The results shown in FIG. 5 have been obtained by solely expressing GST-DDR2 CKD, GST-DDR1b CKD, GST-CDK4 and GST-CDK1, respectively in sf9 cells; processing each expressed cells with H2O2 of 200 uM for half of an hour or not; and then purifying the GST tagged protein followed by a western blotting using a phosphorylated tyrosine specific antibody. The presence of a similar amount of each purified GST tagged protein was shown by CBB staining.
The recombinant baculoviruses having the GST-DDR2 CKD coding gene were transfected into sf9 insect cells, by setting MOU to 10 and the cells were cultured for 24 to 72 hours, to express the protein. […], at the concentration of 200 μM was added to the cultured cells. The cells were left for half of an hour, and collected. The collected cells were lysed and the GST-DDR2 CKD was purified from the expressed products, using the glutathione agarose bead column chromatography. The purified protein was subjected to an electrophoresis in 10% polyacrylamaid gel.
After completing the electrophoresis, the protein developed in the gel was transferred to nitrocellulose, and then subjected to a western blotting using a phosphorylated tyrosine specific antibody (Cell signaling Inc, USA), to measure the chemiluminescence signal using x-ray film. For the control, the chemical luminescence of the case without H2O2 processing was measured by the method as mentioned above.

shc protein = experiment: in vitro shc binding assay using HSC T6 cell lysate; set-up: species or system human
From the text: One of the characteristic features of tyrosine phosphorylated cytosolic domain of receptor tyrosine kinase is to recruit the signaling proteins such as shc protein. This complex formation between the cytosolic domain of receptor tyrosine kinase protein and signaling proteins such as shc is important for the cellular transmission of the activated receptor tyrosine kinase signal. It has been observed in HSC T6 liver stellate cells and fibroblast cells that shc, one of signaling protein containing PTB domain binds to activated DDR2 cytosolic domain. The present inventors examined whether the invented DDR2 cytosolic tyrosine kinase domain protein with induced tyrosine phosphorylation for example, by the method of co-expression with c-Src in sf 9 cells or with the mutation of tyrosine 740 to phenylalanine 740 can be used for in vitro shc binding assay. In FIG. 15, the purified GST-DDR2 cytosolic domain from sf 9 cells with and without Src coinfection were used for in vitro shc binding assay. Each protein was subject to autophosphorylation reaction at 30° C. for 15 min, and a mock-autophosphylation reaction as well where gamma-S-ATP was used instead of ATP in the reaction buffer before they were used for in vitro shc binding assay using HSC T6 cell lysate.
The purified GST-DDR2 CKD proteins without or with tyrosine phosphorylation by Src were subject to in vitro shc binding assay after autophosphorylation reaction or a mock-autophosphorylation reaction as described in materials and methods. The bound proteins on the glutathione bead were eluted by boiling in 1× lameli buffer. The presence of shc in the eluate was measured by western blotting using shc antibody and the accumulation of tyrosine phosphorylation at GST-DDR2 CKD proteins resulted from autophosphorylation was shown by western blotting using P-tyro antibody. The presence of an equal amount of GST-DDR2 CKD proteins in each eluate was confirmed by CBB staining. ‘Bead only’ means that no GST-DDR2 CKD protein was applied on glutathione bead as a control.
The same type of experiment was done as FIG. 15 using purified GST-DDR2 CKD phosphorylated by src and its mutant proteins of Y740F and Y736/740/741F.
As a source of shc protein, total lysate of HSC T6 cells was used. For the preparation of the lysate, 2×10^7 HSC T6 cells were harvested and lysed by sonication in 5 ml of lysis buffer consisting of 20 mM Tris-HCl (pH8.0), 0.1M NaCl, 5 mM DTT, 10 mM NaF, […], 0.02% IGE-PAL (Sigma) and a proteinase inhibitor cocktail pellet (Roche). The supernatant was obtained by centrifugation in 15,000 rpm for 10 min at 4° C. and used for the following shc binding assay. Various GST-DDR2 KD proteins bound to glutathione bead were obtained as described above. […]

T1 sequence (P06241 2-482 isoform P06241-3): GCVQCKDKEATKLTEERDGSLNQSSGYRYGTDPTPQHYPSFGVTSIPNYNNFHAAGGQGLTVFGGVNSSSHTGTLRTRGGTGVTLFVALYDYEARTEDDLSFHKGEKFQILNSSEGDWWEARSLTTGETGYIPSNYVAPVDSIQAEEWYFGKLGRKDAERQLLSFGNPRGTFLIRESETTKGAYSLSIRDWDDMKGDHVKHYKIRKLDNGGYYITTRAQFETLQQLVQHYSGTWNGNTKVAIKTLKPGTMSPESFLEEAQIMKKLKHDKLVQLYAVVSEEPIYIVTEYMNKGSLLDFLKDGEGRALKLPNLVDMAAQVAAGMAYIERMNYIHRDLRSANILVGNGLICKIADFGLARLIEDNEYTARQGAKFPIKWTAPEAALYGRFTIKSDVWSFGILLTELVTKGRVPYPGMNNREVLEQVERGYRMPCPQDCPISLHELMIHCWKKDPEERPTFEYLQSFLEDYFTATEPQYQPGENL

B1: GST-DDR2 CKD: fusion protein of glutathione S transferase and human DDR2 cytosolic tyrosine kinase domain, solely expressed in insect cells (protein)
chain: MTVSLSLPSDSSMFNNNRSSSPSEQGSNSTYDRIFPLRPDYQEPSRLIRKLPEFAPGEEESGCSGVVKPVQPSGPEGVPHYAEADIVNLQGVTGGNTYSVPAVTMDLLSGKDVAVEEFPRKLLTFKEKLGEGQFGEVHLCEVEGMEKFKDKDFALDVSANQPVLVAVKMLRADANKNARNDFLKEIKIMSRLKDPNIIHLLSVCITDDPLCMITEYMENGDLNQFLSRHEPPNSSSSDVRTVSYTNLKFMATQIASGMKYLSSLNFVHRDLATRNCLVGKNYTIKIADFGMSRNLYSGDYYRIQGRAVLPIRWMSWESILLGKFTTASDVWAFGVTLWETFTFCQEQPYSQLSDEQVIENTGEFFRDQGRQTYLPQPAICPDSVYKLMLSCWRRDTKNRPSFQEIHLLLLQQGDE
modifications: left off: a dimerising Fc or GST
notes: fusion protein of glutathione S transferase and human DDR2 cytosolic tyrosine kinase domain, solely expressed in insect cells
What does the source list for B1?
tyrosine phosphorylation induced by co-expression with c-Fyn (c-Fyn tyrosine kinase): remarkably induced; tyrosine phosphorylation induced by co-expression with c-Src (c-Src tyrosine kinase): remarkably induced; also recorded: strongly induced; tyrosine phosphorylation induced by H2O2 processing (sf9 cells): remarkably induced; also recorded: strongly induced; shc binding after in vitro autophosphorylation reaction (shc protein; autophosphorylation at 30° C. for 15 min, FIG. 15, FIG. 16): failure to show an improved shc binding; shc binding before in vitro autophosphorylation (shc protein; mock-autophosphorylation with gamma-S-ATP, FIG. 15): did not attract shc protein binding significantly
